Laboratory results taken from PMC10537722, “Proline Dehydrogenase and Pyrroline 5 Carboxylate Dehydrogenase from Mycobacterium tuberculosis: Evidence for Substrate Channeling” (Pathogens, 2023).

How the values were obtained:
[1] = target: T1, ∆^1-pyrroline-5-carboxylate (P5C) dehydrogenase (PruA) (Mycobacterium tuberculosis, UniProt O50443); experiment: biochemical
T1 construct: gene rocA

[2] = tested on: NC(=O)c1ccc[n+]([C@@H]2O[C@H](COP(=O)([O-])OP(=O)(O)OC[C@H]3O[C@@H](n4cnc5c(N)ncnc54)[C@H](O)[C@@H]3O)[C@@H](O)[C@H]2O)c1; experiment: purified protein; conditions: pH 7.0; 25.0 °C; varied: cofactor
[3] = tested on: O=C(O)C1CCC=N1; experiment: purified protein; conditions: NAD^+; pH 7.0; 25.0 °C

T1 sequence (O50443 1-543): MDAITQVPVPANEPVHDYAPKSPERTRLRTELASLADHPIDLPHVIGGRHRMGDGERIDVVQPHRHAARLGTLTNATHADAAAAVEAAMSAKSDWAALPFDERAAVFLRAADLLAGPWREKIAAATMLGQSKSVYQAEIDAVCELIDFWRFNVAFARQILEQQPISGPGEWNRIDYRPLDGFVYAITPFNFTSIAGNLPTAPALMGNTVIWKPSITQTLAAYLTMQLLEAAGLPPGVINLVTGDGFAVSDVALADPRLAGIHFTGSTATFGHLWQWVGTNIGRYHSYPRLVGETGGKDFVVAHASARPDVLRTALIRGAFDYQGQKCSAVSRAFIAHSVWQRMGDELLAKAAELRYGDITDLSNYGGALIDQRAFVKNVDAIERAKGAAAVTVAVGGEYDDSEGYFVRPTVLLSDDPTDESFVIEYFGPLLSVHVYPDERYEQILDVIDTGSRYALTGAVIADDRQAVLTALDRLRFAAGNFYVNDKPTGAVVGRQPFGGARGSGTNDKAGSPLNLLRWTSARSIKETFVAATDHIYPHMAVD

Molecule	Ki [1]	Km [2]	Km [3]	kcat [3]	kcat/Km [3]
O=C(O)[C@@H]1CCCN1 [L-proline]	6.7 mM				
∆^1-pyrroline-5-carboxylate (P5C) dehydrogenase (PruA) (Mycobacterium tuberculosis H37Rv)		33 ± 4.3 µM	120 ± 0.02 µM	1.1 s⁻¹	8500 M⁻¹ s⁻¹
